{"source": "patent US20110171285A1", "about": "“Design of Fibrinogen and Fibrinogen Derived Products with Reduced Bacterial Binding by Using Modified Sequences of Fibrinogen Chains” (priority 2009, published 2011)", "binders": {"B1": {"name": "human 15-mer C-terminal Fg γ-chain peptide (…) (peptide)", "peptide": "GQQHHLGGAKQAGDV", "modifications": "not checked"}}, "biological_target": "human platelet integrin αIIbβ3 (human), P08514", "assay": "competition ELISA: integrin αIIbβ3 coated, 10 nM human Fg added with varying peptide, bound Fg detected with anti-Fg antibodies/HRP"}
{"binder": "B1", "values": [{"measurement": "IC50 (read off the curve)", "result": 10, "unit": "µM"}]}
